In general, Kd refers to a measure of binding affinity in units of concentration.

Data set [1] has as its target T1, AfPiwi (UniProt O28951 1-427).
T1 sequence: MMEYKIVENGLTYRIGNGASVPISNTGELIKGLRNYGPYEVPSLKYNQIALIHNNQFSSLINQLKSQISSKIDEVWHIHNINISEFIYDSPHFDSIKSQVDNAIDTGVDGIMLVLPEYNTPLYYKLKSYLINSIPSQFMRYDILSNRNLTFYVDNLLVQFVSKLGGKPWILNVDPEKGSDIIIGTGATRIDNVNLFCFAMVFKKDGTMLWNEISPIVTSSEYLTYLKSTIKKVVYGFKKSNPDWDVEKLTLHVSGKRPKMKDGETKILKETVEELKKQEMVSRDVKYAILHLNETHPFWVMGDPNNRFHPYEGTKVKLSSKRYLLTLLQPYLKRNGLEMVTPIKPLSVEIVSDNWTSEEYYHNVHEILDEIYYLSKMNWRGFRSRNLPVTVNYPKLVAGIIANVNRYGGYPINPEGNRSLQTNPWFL
Put plainly: ITC; AfPiwi into preformed duplex; endothermic; ITC: 50 mM Tris pH 7.5, 150 mM KCl, 5% glycerol, 10 mM MgCl2, 1 mM DTT, 20 C; guide 3.5-24 uM in cell with 3-4 fold excess AfPiwi, target in syringe. The following applies: protein: recombinant; blunt. (Isothermal titration calorimetry measures the heat released or taken up as one component is titrated into another.)

Data set [2] concerns the target T1, AfPiwi. Description: ITC; target into AfPiwi-guide; 10 mM Mg2+; isolation 4600 nM; ITC: 50 mM Tris pH 7.5, 150 mM KCl, 5% glycerol, 10 mM MgCl2, 1 mM DTT, 20 C; guide 3.5-24 uM in cell with 3-4 fold excess AfPiwi, target in syringe. The following applies: protein: recombinant.
For data set [3], the target named is T1, AfPiwi. Description: ITC; target into AfPiwi-guide; 10 mM Mg2+; isolation 926 nM; ITC: 50 mM Tris pH 7.5, 150 mM KCl, 5% glycerol, 10 mM MgCl2, 1 mM DTT, 20 C; guide 3.5-24 uM in cell with 3-4 fold excess AfPiwi, target in syringe. The following applies: protein: recombinant; T:G mismatch at guide position 1.
The target in data set [4] is T1, AfPiwi. Description: ITC; target into AfPiwi-guide; 10 mM Mg2+; isolation 794 nM; ITC: 50 mM Tris pH 7.5, 150 mM KCl, 5% glycerol, 10 mM MgCl2, 1 mM DTT, 20 C; guide 3.5-24 uM in cell with 3-4 fold excess AfPiwi, target in syringe. The following applies: protein: recombinant; A:G mismatch at guide position 4.
Data set [5] addresses T1, AfPiwi. Put plainly: ITC; target into AfPiwi-guide; 10 mM Mg2+; isolation 1.83 uM; ITC: 50 mM Tris pH 7.5, 150 mM KCl, 5% glycerol, 10 mM MgCl2, 1 mM DTT, 20 C; guide 3.5-24 uM in cell with 3-4 fold excess AfPiwi, target in syringe. Conditions: protein: recombinant.
The target of data set [6] is T1, AfPiwi. Description: ITC; target into AfPiwi-guide; 10 mM Mg2+; isolation 1280 nM; ITC: 50 mM Tris pH 7.5, 150 mM KCl, 5% glycerol, 10 mM MgCl2, 1 mM DTT, 20 C; guide 3.5-24 uM in cell with 3-4 fold excess AfPiwi, target in syringe. The following applies: protein: recombinant; one mismatch.
For data set [7], the target named is T1, AfPiwi. Description: ITC; target into AfPiwi-guide; 10 mM Mg2+; isolation 3.6 nM; ITC: 50 mM Tris pH 7.5, 150 mM KCl, 5% glycerol, 10 mM MgCl2, 1 mM DTT, 20 C; guide 3.5-24 uM in cell with 3-4 fold excess AfPiwi, target in syringe. Conditions: protein: recombinant; 11 bp, guide 3' overhang 1 nt.
Data set [8] deals with T1, AfPiwi. Put plainly: ITC; target into AfPiwi-guide; 10 mM Mg2+; isolation 14600 nM; ITC: 50 mM Tris pH 7.5, 150 mM KCl, 5% glycerol, 10 mM MgCl2, 1 mM DTT, 20 C; guide 3.5-24 uM in cell with 3-4 fold excess AfPiwi, target in syringe. The following applies: protein: recombinant; one mismatch.
Data set [9] deals with T1, AfPiwi. Put plainly: ITC; target into AfPiwi-guide; 10 mM Mg2+; isolation 1490 nM; ITC: 50 mM Tris pH 7.5, 150 mM KCl, 5% glycerol, 10 mM MgCl2, 1 mM DTT, 20 C; guide 3.5-24 uM in cell with 3-4 fold excess AfPiwi, target in syringe. Conditions: protein: recombinant; T:G mismatch at guide position 10.
In data set [10] the target is T1, AfPiwi. Put plainly: ITC; target into AfPiwi-guide; 10 mM Mg2+; isolation 7520 nM; ITC: 50 mM Tris pH 7.5, 150 mM KCl, 5% glycerol, 10 mM MgCl2, 1 mM DTT, 20 C; guide 3.5-24 uM in cell with 3-4 fold excess AfPiwi, target in syringe. Conditions: protein: recombinant; one mismatch.
Data set [11] deals with T1, AfPiwi. Description: ITC; target into AfPiwi-guide; 10 mM Mg2+; isolation 206 nM; ITC: 50 mM Tris pH 7.5, 150 mM KCl, 5% glycerol, 10 mM MgCl2, 1 mM DTT, 20 C; guide 3.5-24 uM in cell with 3-4 fold excess AfPiwi, target in syringe. Conditions: protein: recombinant; T:G mismatch at guide position 8.
Data set [12] addresses T1, AfPiwi. Description: ITC; target into AfPiwi-guide; 10 mM Mg2+; isolation 725 nM in text, 990 nM in Table 2; ITC: 50 mM Tris pH 7.5, 150 mM KCl, 5% glycerol, 10 mM MgCl2, 1 mM DTT, 20 C; guide 3.5-24 uM in cell with 3-4 fold excess AfPiwi, target in syringe. Conditions: protein: recombinant.

B1: Fig S3 preformed DNA duplex (dsDNA)
DNA 1: TTGAGTTT
DNA 2: AAACTCAA
modifications: 5' phosphate on strand 1
As for B1, the binding result in [1] is given as “binds”.

B2: Fig 3B RNA guide / RNA target (seed) (dsRNA)
RNA 1: UUGUUUGU
RNA 2: ACAAACA
modifications: guide 5' phosphate
With B2, in data set [2], the dissociation constant (Kd) was 0.0822 ± 0.0027 µM.

B3: Fig 5H DNA T:G mismatch at position 1 (dsDNA)
DNA 1: TGTAGGTT
DNA 2: AACCTACG
modifications: guide 5' phosphate
Regarding B3, the equilibrium dissociation constant (Kd) in data set [3] stood at 0.017 ± 0.0011 µM.

B4: Fig 5A RNA A:G mismatch at position 4 (dsRNA)
RNA 1: UGUAGGUU
RNA 2: AACCGACA
modifications: guide 5' phosphate
Take B4: in data set [4], the dissociation constant (Kd) was 1.16 ± 0.26 µM.

B5: Fig 3C DNA guide / RNA target (seed) (DNA:RNA)
DNA: TGTAGGTT
RNA: AACCUAC
modifications: guide 5' phosphate
As to B5, the Kd in [5] came out at 0.028 µM.

B6: Fig 5D RNA mismatch (dsRNA)
RNA 1: UGUAGGUU
RNA 2: ACCUGC
modifications: guide 5' phosphate
On to B6, for which the Kd in data set [6] turned out to be 2.03 ± 0.15 µM.

B7: G12 guide / T11 target (dsDNA)
DNA 1: TGTAGGTTGCAT
DNA 2: TGCAACCTACA
modifications: guide (G12) 5' phosphate
Regarding B7, the equilibrium dissociation constant (Kd) in [7] came to 0.0084 µM.

B8: Fig 5B RNA mismatch (dsRNA)
RNA 1: UUGUUUGU
RNA 2: ACAAGCA
modifications: guide 5' phosphate
As for B8, the equilibrium dissociation constant (Kd) in data set [8] is 0.152 ± 0.016 µM.

B9: Fig 5G DNA T:G mismatch at position 10 (dsDNA)
DNA 1: TGTAGGTTGTAT
DNA 2: ATGCAACC
modifications: guide 5' phosphate
Regarding B9, the Kd in [9] turned out to be 2.85 ± 0.35 µM.

B10: Fig 5E DNA mismatch (dsDNA)
DNA 1: TGTAGGTT
DNA 2: AACCTGCA
modifications: guide 5' phosphate
For B10, the equilibrium dissociation constant (Kd) in data set [10] worked out at 0.452 ± 0.027 µM.

B11: Fig 5F DNA T:G mismatch at position 8 (dsDNA)
DNA 1: TGTAGGTTGCAT
DNA 2: TGCGACCT
modifications: guide 5' phosphate
For B11, the equilibrium dissociation constant (Kd) in data set [11] amounted to 0.672 ± 0.082 µM.

B12: Fig 3A DNA guide / DNA target (seed) (dsDNA)
DNA 1: TGTAGGTT
DNA 2: AACCTACA
modifications: guide 5' phosphate
Consider B12, for which the Kd in data set [12] is 0.0292 ± 0.002 µM.

(Values after publication PMC2642989, “Enhancement of the Seed-Target Recognition Step in RNA Silencing by a PIWI/MID Domain Protein”.)
